The source of these data is article PMC5527020.

The subject of one data set is HCV NS3. Put plainly: magnetic-bead pull-down with q-PCR. The conditions noted are these: BD buffer: 50 mM NaH2PO4 pH 8.0, 150 mM NaCl, 5 mM KCl, 2 mM MgCl2, 0.05% Tween-20; room temperature, 30 min; aptamer heated to 95 C and cooled at 4 C.
The subject of data set [1] is Hepatitis B surface antigen (HBs Ag). The data set is described as follows: magnetic-bead pull-down with q-PCR. The conditions noted are these: BD buffer: 50 mM NaH2PO4 pH 8.0, 150 mM NaCl, 5 mM KCl, 2 mM MgCl2, 0.05% Tween-20; room temperature, 30 min; aptamer heated to 95 C and cooled at 4 C.

For the sequence “AGCAGCACAGAGGTCCTGCATCACGAAGCCTGGCAGCGTGCTACCGTGAA [MP-1]”, the values for the dissociation constant (Kd) (with HCV NS3; in data set [1]) were 23.3 nM and 28.3 nM, respectively.
